Earlier results as cited in article PMC3995210.
pKd: −log10 of the molar value.

Molecular target: dynein intermediate chain (IC) (Drosophila melanogaster) (UniProt Q24246)
Experiment: ITC

Sequence of UniProt Q24246 (Q24246 whole entry): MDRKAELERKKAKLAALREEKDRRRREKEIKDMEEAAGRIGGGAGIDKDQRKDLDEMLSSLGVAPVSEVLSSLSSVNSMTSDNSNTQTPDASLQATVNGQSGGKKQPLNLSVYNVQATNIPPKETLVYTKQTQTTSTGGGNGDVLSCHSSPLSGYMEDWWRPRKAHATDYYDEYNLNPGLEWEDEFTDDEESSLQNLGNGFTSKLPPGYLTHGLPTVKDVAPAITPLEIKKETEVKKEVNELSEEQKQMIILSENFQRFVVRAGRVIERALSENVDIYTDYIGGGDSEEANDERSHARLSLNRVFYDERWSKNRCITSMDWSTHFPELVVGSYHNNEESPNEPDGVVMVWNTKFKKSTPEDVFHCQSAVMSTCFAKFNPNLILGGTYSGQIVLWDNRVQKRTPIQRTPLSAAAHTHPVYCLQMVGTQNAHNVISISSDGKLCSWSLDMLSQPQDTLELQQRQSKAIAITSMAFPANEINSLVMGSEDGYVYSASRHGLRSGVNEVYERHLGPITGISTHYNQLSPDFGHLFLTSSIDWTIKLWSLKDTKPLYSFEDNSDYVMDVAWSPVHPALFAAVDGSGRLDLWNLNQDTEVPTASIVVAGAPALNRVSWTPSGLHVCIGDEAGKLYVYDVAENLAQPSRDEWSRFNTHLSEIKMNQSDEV

pKd: 5.01
Substance: LC8 (from UniProt Q24117)
